Data on 2 substances can be found in patent US6579695B1.

Assay [1] concerns the target ACP-NodF chimera.
For assay [2], the target named is Rhizobial NodF (wild-type) (Rhizobial).
Assay [3] addresses Lactobacillus casei D-Alanyl carrier protein, apo-form (apo-Dcp) (Lactobacillus casei).
Assay [4] addresses E. coli acyl carrier protein, apo-form (apo-ACP) (E. coli) (UniProt P0A6A8).
In assay [5] the target is N-terminal hexa-histidine-tagged SrfB1 domain of surfactin synthetase, apo-form (His6-SrfB1) (Bacillus subtilis) (UniProt Q04747).

Some results are limits rather than exact numbers.

The substance “E. coli holo-acyl carrier protein synthase (ACPS) (enzyme)” had a [3H]phosphopantetheine incorporated, in vitro phosphopantetheinylation in assay [1] of 122000 dpm. The % conversion, in vitro phosphopantetheinylation with [3H]CoA in assay [2] was 47%. In addition, in assay [3], the radioactivity incorporated into the protein fraction, 36 hour in vitro phosphopantetheinylation was determined as 1.04e+06. In assay [4], the Km for apo-ACP, [3H]CoA radioassay is less than 1 µM and the apparent kcat of phosphopantetheinyl transfer, [3H]CoA radioassay was 0.167 s⁻¹.

In turn, Bacillus subtilis Sfp (enzyme) had a [14C]-L-valine-holo-SrfB1 covalent complex formed after preincubation of apo-SrfB1 with Sfp and CoASH in assay [5] of 14 fold.
